Assays:
[1] = target: AccS′ (soluble C-terminal autokinase module of the AccS sensor kinase), His6-tagged (Azoarcus sp. CIB); assay: AUC; sedimentation velocity, 20°C, 48,000 rpm, AccS′ 1 mg/ml, with 0.1 mM DTT and 250 µM ubiquinone Q0; dimer to monomers
[2] = target: AccS′ (soluble C-terminal autokinase module of the AccS sensor kinase), His6-tagged (Azoarcus sp. CIB); assay: AUC; sedimentation velocity, 20°C, 48,000 rpm, AccS′ 1 mg/ml, in the absence of DTT or with 0.1 mM DTT; dimer to monomers

Which results are given for “AccS′ (soluble C-terminal autokinase module of the AccS sensor kinase), His6-tagged (domain or fragment)”?
percent of the protein as dimer (with DTT and Q0) [1]: 37%; stoichiometry N [1]: 2; percent of the protein as dimer (in the absence of DTT) [2]: 62%; percent of the protein as dimer (with DTT) [2]: 88%; stoichiometry N [2]: 2

Source: publication PMC6456745
